Here are results for five molecules from publication PMC5036196.

B1: ARB2-M1 (residues Gln463, His467 and Asp471 mutated to Ala) (domain or fragment)
chain: LQKAIRAQQQAYLSAEFNFVTLPLVSMDLPDNTVLCTPNISESNTIIIVVHDTSDIWAKRNVISGTIDLSSSVIIDNSLDFIKWGLDRKYGIIDVNIPLTLFEPDNYSGMITSQEVLIYLWDNYIKYFPSVAKIAFIGIGDSYSGIVHLLGHRDTRAVTKTVINFLGDKQLKPLVPLVDETLSEWYFKNSLIFSNNSHQCWKENESRKPRKKFGRVLRCDTDGLNNIIEERFEEATDFILDS
B2: ARB2 domain of Hda1 (Hda1^457–698) (domain or fragment)
chain: B1 chain with A7Q, A11H, A15D
B3: ARB2-M2 (residues Tyr468 and Glu472 mutated to Ala) (domain or fragment)
chain: B1 chain with A7Q, A11H, Y12A, A15D, E16A
B4: ARB2-M3 (residues Val481, Ser482, Met483 and Asp484 mutated to Ala) (domain or fragment)
chain: B1 chain with A7Q, A11H, A15D, V25A, S26A, M27A, D28A
B5: ARB2-M4 (residues His604, His608 and Arg609 mutated to Ala) (domain or fragment)
chain: B1 chain with A7Q, A11H, A15D, H148A, H152A, R153A

Broadly, the Kd is the concentration at which binding is half-saturated. High values mean a looser complex, low ones a tighter complex. As a reminder, the stoichiometry N is the number of molecules, sites or subunits per partner or assembly.

Where a chain is given by its changes, count along the chain named.

For this assay, the target named is yeast histone H2A-H2B dimer (Saccharomyces cerevisiae) (UniProt P04911). The assay can be described thus: ITC; ITC200 at 20 °C; 0.5 mM ARB2 or mutant in the injector, 0.2 mM H2A/B or 0.25 mM H3/4 in the sample cell; 25 mM Tris-HCl pH 7.5, 200 mM NaCl; single-site fitting model.
Turning to B1, the dissociation constant (Kd) was 20.4 µM, the dH was -6.86 kcal/mol and the stoichiometry N came to 0.77.
For B2 the same measures were 5.46 µM, -12.9 kcal/mol and 0.78.
For B3 the same measures were 16.9 µM, -8.9 kcal/mol and 0.64.
With B4, the Kd amounted to 27.7 µM, the dH is -11.6 kcal/mol and the stoichiometry N was determined as 0.74.
In the case of B5, the Kd was 17.4 µM, the dH is -11.5 kcal/mol and the stoichiometry N stood at 0.8.
